Target: Recombinant human cartilage oligomeric matrix protein (COMP) (human) (UniProt P49747)
Experiment: atomic force microscopy

Recombinant human cartilage oligomeric matrix protein (COMP), P49747 21-757 (natural protein; other documents disagree on this pair), sequence (P49747 21-757): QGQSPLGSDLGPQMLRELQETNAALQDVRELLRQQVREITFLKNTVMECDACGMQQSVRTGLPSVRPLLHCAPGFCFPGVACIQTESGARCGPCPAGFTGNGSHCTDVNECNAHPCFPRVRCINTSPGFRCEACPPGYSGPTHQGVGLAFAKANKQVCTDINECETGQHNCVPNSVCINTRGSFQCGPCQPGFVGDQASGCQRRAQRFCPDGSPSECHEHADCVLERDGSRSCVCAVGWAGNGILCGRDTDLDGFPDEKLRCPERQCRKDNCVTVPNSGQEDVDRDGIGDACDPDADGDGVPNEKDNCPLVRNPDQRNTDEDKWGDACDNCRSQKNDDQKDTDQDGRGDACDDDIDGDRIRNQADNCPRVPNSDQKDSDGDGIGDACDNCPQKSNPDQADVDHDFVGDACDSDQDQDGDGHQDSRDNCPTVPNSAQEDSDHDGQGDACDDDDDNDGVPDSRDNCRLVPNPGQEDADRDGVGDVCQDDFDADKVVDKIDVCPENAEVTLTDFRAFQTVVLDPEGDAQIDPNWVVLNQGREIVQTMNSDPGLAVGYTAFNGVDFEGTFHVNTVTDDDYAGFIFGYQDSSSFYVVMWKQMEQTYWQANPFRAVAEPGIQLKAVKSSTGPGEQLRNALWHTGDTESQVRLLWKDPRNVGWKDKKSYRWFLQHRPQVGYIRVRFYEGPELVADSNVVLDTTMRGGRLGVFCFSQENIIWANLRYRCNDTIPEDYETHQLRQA

- stoichiometry N: 5
Substance: Recombinant human cartilage oligomeric matrix protein (COMP), P49747 21-757 (natural protein; other documents disagree on this pair)
